# Reference: publication PMC7790435
# Target: Thermotoga maritima CheA, full-length (Thermotoga maritima) (UniProt Q56310)
# Experiment: cross-linking + SEC-MALS
row,stoichiometry N,Molecule
1,2,"Thermotoga maritima CheA, full-length (from UniProt Q56310 1-671) (enzyme)"
2,2,Thermotoga maritima CheW (natural protein) KEFEVLSFEIDEQALAFDVDNIEMVIEKSDITPVPKSRHFVEGVINLRGRIIPVVNLAKILGISFDEQKMKSIIVARTKDVEVGFLVDRVLGVLRITENQLDLTNVSDKFGKKSKGLVKTDGRLIIYLDIDKIIEEITV
